Results: patent US20070160987A1

Biological target: endogenous human CXC chemokine receptor subtype 3 (CXCR3) (human) (UniProt P49682)
Experiment: cell-based or functional assay

Sequence of UniProt P49682 (P49682 whole entry): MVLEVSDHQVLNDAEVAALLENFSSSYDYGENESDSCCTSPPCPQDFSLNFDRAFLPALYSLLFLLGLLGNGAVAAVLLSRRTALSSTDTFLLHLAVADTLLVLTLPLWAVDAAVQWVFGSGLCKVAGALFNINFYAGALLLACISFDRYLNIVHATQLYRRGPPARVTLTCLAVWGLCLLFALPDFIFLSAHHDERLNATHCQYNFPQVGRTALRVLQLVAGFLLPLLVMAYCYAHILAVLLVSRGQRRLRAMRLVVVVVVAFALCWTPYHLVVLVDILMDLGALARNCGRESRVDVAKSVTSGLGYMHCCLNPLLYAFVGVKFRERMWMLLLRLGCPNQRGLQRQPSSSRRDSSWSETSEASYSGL

EC50, pigment aggregation in pre-dispersed (MSH-treated) melanophores transfected with the receptor	Substance
0.29 nM	monokine inducible γ-interferon (Mig) (from UniProt Q07325 23-125) (ligand)
0.15 nM	γ-interferon inducible protein-10 (IP-10) (from UniProt P02778 22-98) (ligand)
